Experiments:
[1] = target: CD38 TALEN Right (artificial) (UniProt Q56830); experiment: cell_activity; conditions: paired with CD38 TALEN Left; simultaneous electroporation with TRAC and CD52 TALEN
[2] = target: CD38 TALEN Left (artificial) (UniProt Q56830); experiment: cell_activity; conditions: paired with CD38 TALEN Right; simultaneous electroporation with TRAC and CD52 TALEN

Substance | activity (% CD38-negative cells) [1] | activity (% CD38-negative cells) [2]
CD38 right half-site | 66.1 | –
CD38 left half-site | – | 66.1
